Laboratory results as given in the supplement of paper PMC12455559.
± gives the standard deviation of the averaged measurements.

How the values were obtained:
[1] = melting temperature (DSF); higher = more thermostable
Summary of the method: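 Values are melting temperatures from differential scanning fluorimetry. Candidate enzymes were expressed in E. coli C41(DE3), purified on nickel beads and freed by SUMO protease cleavage. In sealed PCR plates on a Bio-Rad CFX96, 45 μL enzyme (0 to 0.3 mg/mL) was combined with 5 μL 5X Sypro Orange. Fluorescence was recorded from 25 °C for 250 cycles, rising 0.3 °C per cycle at a ramp of 0.3 °C/s.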

[2] = purified protein yield per well (BCA); higher = higher soluble expression
Summary of the method: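 The measured quantity is purified protein yield per well, determined with the Pierce Rapid Gold BCA kit. Anything below 25 ug (0.1 mg/mL) lies under the detection threshold. Enzymes were expressed in E. coli C41(DE3) in 2 mL autoinduction cultures with 100 µg/mL kanamycin at 37 °C for 2 h, then 18 °C for 40 h, and purified on an OT-2 robot using Ni-charged magnetic beads and SUMO protease release.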

[3] = PET hydrolysis, aromatic products released after 48 h (umol product/mg enzyme); higher = more PET depolymerization activity
Summary of the method: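 Reactions ran in sealed plates without shaking for 48 h at 40 or 60 °C. Each held 3.5 mg amorphous PET film or crystalline PET powder, 450 μL buffer and 5 μg (50 μL) of tagless, SUMO-cleaved, nickel-purified candidate enzyme. Buffers were 50 mM NaCitrate at pH 4.5 or 5.5, 50 mM NaPhosphate at pH 6.5 or 7.5, and glycine at pH 8.5. The supernatant's aromatic product, read at 260 and 280 nm against buffer blanks, gives PET hydrolysis activity per mg enzyme.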

[4] = substrate: cryPow, 40 °C, pH 5.5
[5] = substrate: cryPow, 40 °C, pH 6.5
[6] = substrate: cryPow, 40 °C, pH 7.5
[7] = substrate: cryPow, 40 °C, pH 8.5
[8] = substrate: cryPow, 40 °C, pH 4.5
[9] = substrate: cryPow, 60 °C, pH 5.5
[10] = substrate: cryPow, 60 °C, pH 6.5
[11] = substrate: cryPow, 60 °C, pH 7.5
[12] = substrate: cryPow, 60 °C, pH 8.5
[13] = substrate: aFilm, 40 °C, pH 5.5
[14] = substrate: aFilm, 40 °C, pH 6.5
[15] = substrate: aFilm, 40 °C, pH 7.5
[16] = substrate: aFilm, 60 °C, pH 5.5
[17] = substrate: aFilm, 60 °C, pH 6.5
[18] = substrate: aFilm, 60 °C, pH 7.5

Sequence	melting temperature [1] [C]	purified protein yield per well [2] [µg]	PET hydrolysis [3, 4]	PET hydrolysis [3, 5]	PET hydrolysis [3, 6]	PET hydrolysis [3, 7]	PET hydrolysis [3, 8]	PET hydrolysis [3, 9]	PET hydrolysis [3, 10]	PET hydrolysis [3, 11]	PET hydrolysis [3, 12]	PET hydrolysis [3, 13]	PET hydrolysis [3, 14]	PET hydrolysis [3, 15]	PET hydrolysis ([3]; substrate: aFilm, 40 °C, pH 8.5)	PET hydrolysis [3, 16]	PET hydrolysis [3, 17]	PET hydrolysis [3, 18]	PET hydrolysis ([3]; substrate: aFilm, 60 °C, pH 8.5)	PET hydrolysis ([3]; substrate: aFilm, 40 °C, pH 4.5)	PET hydrolysis ([3]; substrate: aFilm, 60 °C, pH 4.5)	PET hydrolysis ([3]; substrate: cryPow, 60 °C, pH 4.5)
AIEHRRGPAPSEQSVLAANGPFSHSTFAVSDAASAKFGKGTIYYPNDTSQGTFGGVAISPGYTSTEPHIAWLGTRLAAHGFVTITITTNSLYDNPTERGQQLLAALDYLANNAPLAIRQRLDTSRMGVVGHSMGGGGSLYAVWNRPALKAAVPLAPYHTIKNWSGIKTPTMIIGGSADGVAPVEEHSERFYSSMTYARERAYAELEGANHSGSFLFEDHPIIGKFTVAWLKRFIDGDTRYDQFLCPPPTGAYLTEYRASCPHA [DP006]	46.9	28	< 3	< 3	< 3	5	–	–	–	–	–	–	–	–	–	–	–	–	–	–	–	–
ALNPYQRGPDPTDALLEAPRGPFATASTTVSRLSVSGFGGGVIYYPTDTSQGTFGGIAISPGYTASWSSLDWLGPRIASHGFVVIGIDTLSRYDQPASRGRQLLAALDYLTQRSSVRGRVDASRLAVAGHSMGGGGSLEAADSRPSLQAAVPLAPWHTTKNWSGVRVPTMIIGGESDSVAPVSTHSELFYASIPASSEKAYLELNGASHFFPNTTNTTMAKSMVSWLKRFVDDDVRYDPFLCPGPDGSAVEEYRQTCPLS [TEP140]	51.4	36.5	< 3	< 3	4	–	< 3	–	–	–	–	–	–	–	–	–	–	–	–	–	–	–
ANPYERGPAPTKASIEATTGYFATAKVTVAKSSVSGFGGGTIYYPTSTTSGTFGAIALVPGFTNVQSAVAWLGPRVASQGFVVFIIDTNSVYDSPDSRGTQLLAALDYLTNTSTVKSRVDATRLGVMGYSMGGGGALSATKTRTSIKASVPMAPYHSTKTWTTVKTPTLIVTGQSDTTAPPASHGLAFYNSLSTSIDKAYMELKGAGHSAPTSANTTIAKYSISWFKRFIDDDTRYDQFLCPNPTDTTISSYKSTCNYS [DP082]	61.9	88	5	76	100	93	–	< 3	13	22	32	–	–	–	–	–	–	–	–	–	–	–
ANPYERGPDPTLASVEATSGTFAYASLSVSSGNGFGGGTIYYPTSTTDGTFAGIVTCPGFTNSGSSMAWFGKVLASQGFVTLVMNPKSNLDFPDARATQMLAALDWLTNSSSVKTRIDATRLGVLGQSMGGGATLKASKTRPSLKASFATAPYNSDKDWSTNTVPQFLFGMQNDTTAAVTNHALKFYNSLPATTPKIYAELRGAGHSTATSPNTSIRRYAVSFMKRNLDNDTRYSQFLCPGPTITSSSPLSAFMSNCLF [DP080]	63.1	291	< 3	2 ± 2.8	6	8 ± 1.4	–	< 3	< 3	< 3	< 3	< 3	< 3	< 3	1.5 ± 2.1	< 3	< 3	< 3	< 3	–	–	–
ANPYERGPNPTQALLEARSGPFSVSSERAWRLGSDGFGGGTIYYPRENNTYGAVAISPGYTGTQASVAWLGERIASHGFVVITIDTNTTLDQPDSRADQLEAALDHMVDGASSTVRSRIDRNRLAVMGHSMGGGGTLRLASQRPDLKAAIPLTPWHLNKSWSNVQVPTLIIGADLDTIAPVLTHAEPFYNSIPTSTRKAYLELDGATHFAPNITNSTIGMYSVAWLKRFVDEDTRYTQFLCPGPRTGLFSDVEEYRSTCPF [TEP014]	54.1	267	< 3	1.5 ± 2.1	4.5 ± 0.71	–	< 3	< 3	< 3	< 3	–	< 3	< 3	< 3	–	< 3	< 3	< 3	–	< 3	< 3	< 3
APDTVVGNPFARGPDPTKESIEAERGPFAVATEKVPGGKGFGGGTIHYPTDTSQGTFGAIAVAPGFTESESAIAWYGPRLASQGFVVITISTNGLWDLPASRADQLLAALRHVTDASQIKSRVDRDRLAVMGHSMGGGGSLIAARNNPALKATIPLTGWNPNTSFSDLKVPTFVVSAQNDFIAPDGSHSRPFYQSLPASLNKAYMRLAGVGHMAPVNPNVTIAKYSISWLKRFVDNDTRYSQFLCPLPTGDPKIAAYEGTCPLS [DP008]	50.5	67	4	20	40	50	–	< 3	9	9	9	–	–	–	–	–	–	–	–	–	–	–
APGPSAPCSNCTRGPNPTEASLKSDRGPFTTARFSVSGFLKGFGDSTVYYPTNTTGRMGAIAVIPGYLSYESSIEWWGPRLASHGFVVMTMNTSTIYDQPDSRATQLSKALDYLIAQSNTSSSPIYNKIDSTRLGAIGWSMGGGGSLKLSTQRSLNAIIPQAPWYSGSNSFNTIKTPALILACSADTVAPVSVHASPFYNRIPGSTPKAFLEIYGGSHFCANSGYPNEDLLGLYGIAWMKRFIDFDNRYSQFLCGPNHEGDFAISDYRQNCPY [ESM096]	52	33.4	< 3	6	22	–	< 3	–	–	–	–	–	–	–	–	–	–	–	–	–	–	–
APNAAIAAAPRVAPAANPYERGPAPTEESVKAEKGPFDIAQMPVPGGAGVFGGGTIWYPKDEAGPFGAVVVSPGFMTLEPLIQWYGRTLASHGFVVMTMATITPIDPPFSRGDELRSALDYLVTKSTVKDKIDPTRTALMGHSMGGGGTLDAASKLPDLKAAIPLAPWNLDYAPPAKIKAPTLIIGADNDPIAPTAAFADPFYAALTTQNRAYLKLKNAGHTFSFLGYNPTITKYTVSWLKRFVDNDTRYDQFLCPIPAASDTVAAYQGTCPLT [DP091]	53.8	32	< 3	< 3	< 3	< 3	–	–	–	–	–	–	–	–	–	–	–	–	–	–	–	–
